Experimental findings from patent publication US20060008875A1 (UNIVERSITAIR MEDISCH CENTRUM ROTTERDAM, published 2006) are described below.

The assay has as its target T1, replication/repair factor RPA1 (human, UniProt P27694 1-616).
T1 construct: Endogenous protein in extracts of human TTD-A fibroblasts
The assay can be described thus: anti-HA immunoprecipitation from extracts of TTD-A fibroblasts expressing p8-HA, immunoblot. From the text: We cloned the human TFB5 cDNA from primary fibroblasts by virtue of its homology with yeast TFB5 using conventional techniques known in the art. An HA-tagged version of hTFB5 (p8-HA) was constructed via conventional molecular cloning methods (Maniatis et al, supra) and expressed in TTD-A fibroblasts and subsequently used for immuno-precipitations with anti-HA (FIG. 1a). Both the XPB core TFIIH and the associated CAK component (CDK7) were co-precipitated with p8-HA, in contrast to replication/repair factor RPA1 (data not shown). Conversely, anti-p44 (another core-TFIIH component) co-precipitated p8-HA. We conclude that, analogous to yeast, this small polypeptide is associated with TFIIH in mammalian cells.
Immunoprecipitation and immunoblot analysis. Whole cell extracts from MRC5SV, TTD1BRSV and TTD1BRSV+hTFB5HA were prepared by isolating cells from 6 petri dishes per cell line (13 cm). Collected cell-pellets were washed once in PBS prior to lysis by douncing (20 strokes using a 12.61 mm dounce homogenizer, Bellco Glass, INC., USA) in 2 ml of buffer A (50 mM Tris pH 7.9; 150 mM NaCl; 20% Glycerol; 0.1% NP40; 5 mM β-mercaptoethanol) supplemented with anti-proteases. […]
A general note: A western blot detects proteins with antibodies after separation by electrophoresis.

T1 sequence (P27694 whole entry): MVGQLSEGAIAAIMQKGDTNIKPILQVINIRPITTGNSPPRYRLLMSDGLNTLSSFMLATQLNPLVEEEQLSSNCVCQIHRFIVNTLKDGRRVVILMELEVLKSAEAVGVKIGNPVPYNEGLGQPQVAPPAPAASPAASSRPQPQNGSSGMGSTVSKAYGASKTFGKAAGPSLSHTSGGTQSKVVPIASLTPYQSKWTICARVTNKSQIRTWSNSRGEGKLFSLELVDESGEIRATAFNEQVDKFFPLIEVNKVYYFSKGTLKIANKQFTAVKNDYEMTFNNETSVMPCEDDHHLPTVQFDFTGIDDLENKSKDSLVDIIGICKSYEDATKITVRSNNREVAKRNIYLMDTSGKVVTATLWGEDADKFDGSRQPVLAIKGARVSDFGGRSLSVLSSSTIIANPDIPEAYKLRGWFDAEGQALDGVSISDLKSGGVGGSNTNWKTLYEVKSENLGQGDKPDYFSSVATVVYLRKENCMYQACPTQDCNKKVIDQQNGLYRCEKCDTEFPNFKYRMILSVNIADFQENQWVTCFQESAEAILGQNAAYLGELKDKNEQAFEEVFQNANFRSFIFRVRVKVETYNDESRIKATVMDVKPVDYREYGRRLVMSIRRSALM

B1: HA-tagged version of hTFB5 (p8-HA) (other)
chain: MVNVLKGVLIECDPAMKQFLLYLDESNALGKKFIIQDIDDTHVFVIAELVNVLQERVGELMDQNAFSLTQK
notes: C-terminally HA-tagged TTDA cloned in pCDNA3 and expressed in TTD1BRSV (TTD-A) fibroblasts; tested in whole cell extracts; also called TTDA-HA; hTFB5HA; not shown: C-terminal HA tag
With B1, the binding result was “no binding”.
